Article PMC3807708

Key:
Assay in all cases: SPR; ProteOn XPR36; His-tagged receptor immobilised on Ni2+-activated HTG chip; IFN-γ-SC as analyte, 1.2 to 99 nM; PBST (PBS pH 7.4, 0.005% Tween20); 25°C; 1:1 Langmuir with drift model; doubly referenced
IFN-γ-Rx H222D (human) = IFN-γ-Rx H222D (human) (UniProt P15260)
IFN-γ-Rx H222R (human) = IFN-γ-Rx H222R (human) (UniProt P15260)
IFN-γ-Rx N65R (human) = IFN-γ-Rx N65R (human) (UniProt P15260)
[1] = biological target: IFN-γ-Rx N70G + H222R (human) (UniProt P15260)
[2] = biological target: IFN-γ-Rx N70G + S95R (human) (UniProt P15260)
IFN-γ-Rx S95R (human) = IFN-γ-Rx S95R (human) (UniProt P15260)
[3] = biological target: IFN-γ-Rx S95R + H222R (human) (UniProt P15260)

- fold change of Kd against WT (IFN-γ-Rx H222D (human)): 2.2 fold
- Kd (IFN-γ-Rx H222R (human)): 0.0294 µM
- koff (IFN-γ-Rx H222R (human)): 0.0349 s⁻¹
- kon (IFN-γ-Rx H222R (human)): 1.19e+06 M⁻¹ s⁻¹
- Kd (IFN-γ-Rx N65R (human)): 0.0712 µM
- koff (IFN-γ-Rx N65R (human)): 0.0628 s⁻¹
- kon (IFN-γ-Rx N65R (human)): 882000 M⁻¹ s⁻¹
- Kd [1]: 0.0269 µM
- koff [1]: 0.0391 s⁻¹
- kon [1]: 1.46e+06 M⁻¹ s⁻¹
- Kd [2]: 0.0559 µM
- koff [2]: 0.0494 s⁻¹
- kon [2]: 889000 M⁻¹ s⁻¹
- Kd (IFN-γ-Rx S95R (human)): 0.0698 µM
- koff (IFN-γ-Rx S95R (human)): 0.0454 s⁻¹
- kon (IFN-γ-Rx S95R (human)): 650000 M⁻¹ s⁻¹
- Kd [3]: 0.0563 µM
- koff [3]: 0.059 s⁻¹
- kon [3]: 1.05e+06 M⁻¹ s⁻¹
Substance: single-chain form of human interferon-γ (IFN-γ-SC) (ligand)
